We go through 1 substance from patent publication US20050262592.

The data set concerns duckweed-produced human microplasminogen.
Chain of duckweed-produced human microplasminogen (chain, as listed by the source): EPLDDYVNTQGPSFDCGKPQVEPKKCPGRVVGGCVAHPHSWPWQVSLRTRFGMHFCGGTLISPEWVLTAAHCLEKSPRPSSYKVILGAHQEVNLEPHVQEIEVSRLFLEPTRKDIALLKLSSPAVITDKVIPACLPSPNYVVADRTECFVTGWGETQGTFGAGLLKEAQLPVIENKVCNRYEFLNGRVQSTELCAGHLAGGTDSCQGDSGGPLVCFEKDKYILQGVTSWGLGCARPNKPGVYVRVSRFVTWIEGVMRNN

For the substance urokinase, the “Western blot: production of the B chain of plasmin” value is “Western blot analysis confirmed the production of the B chain of plasmin following activation of duckweed-produced microplasminogen with either urokinase or tPA”.
